We go through three molecules from publication PMC9481538, “The interaction between LC8 and LCA5 reveals a novel oligomerization function of LC8 in the ciliary-centrosome system” (Scientific Reports, 2022).

One data set relates to HA-tagged LC8. As to the kind of experiment: co-immunoprecipitation of LC8 with full-length FLAG-LCA5 in HEK293 cells. The data set is classed as cell-based, human. To be noted: for co-immunoprecipitation of LC8: HEK-293, FLAG-LCA5 and HA-LC8 co-expressed 48 h, anti-LCA5 and anti-FLAG antibodies. Here is the method: HEK-293 cells were transfected with FLAG-LCA5-pcDNA3.1 + and HA-LC8-pcDNA3.1 + constructs and incubated for 48 h. After 48 h, cells were washed with ice-cold DPBS (Lonza) and lysed on ice with lysis buffer (50 mM TRIS 2 mM EDTA 100 mM NaCl 10% Glycerol and 0.5% IGEPAL supplemented with protease (Sigma Aldrich) and phosphatase (Sigma-Aldrich) inhibitors). Total protein concentration was determined by the BCA kit (Sigma Aldrich). For each co-immunoprecipitation reaction 1 mg total protein was used and 20 μg of anti-lebercilin (19,333-1-AP Proteintech), anti-LC8 (16,811–1-AP Proteintech), polyclonal antibody, anti-FLAG (8146 Cell Signaling Technologies), anti-MYC (2276 Cell Signaling Technologies) or anti-HA (sc-7392 Santa Cruz Biotechnology) monoclonal antibody was added respectively and incubated for 4 h at 4 °C. The immunocomplexes were incubated with protein A/G sepharose beads (Cell Signaling Technologies) overnight. The immunocomplex-containing beads were washed three times in lysis buffer, then two times in detergent-free lysis buffer, proteins were eluted by boiling in 2 × Laemmli buffer. The samples were analyzed by 10% tricine-SDS PAGE. The SDS gel was cut half above the 35 kDa marker band and subsequently blotted onto two separate Amersham Hybond PVDF membrane (GE Healthcare). The LCA5 containing upper half was blotted for 180 min, the LC8 containing lower part was blotted for 80 min. The membranes were blocked in 5% BSA and the LCA5 and LC8 containing parts are incubated with mouse anti-FLAG 1:1000 (8146 Cell Signaling Technologies), and rabbit anti-LC8 1:1000 (ab51603 Abcam) primary antibodies respectively overnight at 4 °C. After washing with TBS-T, membranes were incubated with secondary antibodies (ECL PLEX Goat-Anti-Rabbit IgG CY5 1:1500 and CL PLEX Goat-Anti-Mouse IgG CY3 1:1500, Ge Healthcare) for 1 h at room temperature, then scanned in a Typhoon scanner (GE Healthcare).

Data set [1] concerns the target T1, LC8 (Homo sapiens, UniProt Q96FJ2).
T1 construct: 6xHis (N); made in house; host or cells: E. coli BL21 (DE3) Rosetta
Description: SDS-PAGE densitometric analysis of gel filtration fractions (sLCA5:LC8 molar ratio). As to conditions: SDS-PAGE densitometry; result in words. The data set is classed as binding. Here is the method:
(§1) For analytical gel filtration a Superose 6 Increase 10/300 (Cytiva) was used with an effective resolution between 5–5000 kDa range and a void volume above 5000 kDa. The column was equilibrated in DPBS supplemented with 200 μM TCEP. The calibration curve was fitted on the chromatogram of gel filtration standard mix (BioRad) with the addition of Dextran Blue to determine the void volume. 100 μl of LCA5 purified protein or LCA5-LC8 complex was injected at the concentration of 30 μM for LCA5 and 150 μM for LC8, with a flow rate of 500 μl/min immediately or after 60 min of incubation at 37 °C. For densitometric analysis, fractions were collected and 200 μl of samples were precipitated in 1.8 ml 96% ethanol at − 80 °C for 2 h. The samples were centrifugated for 30 min at 14,000 g, and dissolved in 15 μl of SDS sample buffer. 10 μl of each sample was run on Tricine-SDS gel. The calibration of the densitometry was performed on samples of known molar ratio of sLCA5 construct and LC8 (see the original gel used for calibration on Suplementary Fig. S16). Data evaluation was performed by using Origin 8 software and Fiji ImageJ software.

The target of data set [2] is T1, LC8. As to the kind of experiment: isothermal titration calorimetry, sLCA5 fragments titrated with LC8. Type of data set: binding. To be noted: ITC, PBS pH 7.4, 1 mM TCEP, 37 °C; MBP-fused sLCA5 titrated with LC8. Here is the method:
LC8 and MBP-fused LCA5 constructs were prepared in PBS supplemented with 1 mM TCEP. Before measurement, protein samples were dialyzed overnight in PBS pH 7.4 (Orange Scientific, OrDial D14 membrane). Peptides were diluted from stock with the buffer used for dialysis. The concentration of samples was determined based on absorbance at 280 nm in the case of proteins, and 205 nm for the peptide. Experiments were performed using MicroCal PEAQ-ITC (Malvern Panalytical), LCA5 peptides were measured at 25 °C, proteins were analyzed at 37 °C. Lebercilin peptide was injected into the cell 18 times 2 μl volumes, with 5 min timing between injections. In case of the protein, LCA5 was placed in the sample cell, and LC8 was injected during 37 injections, 1 μl each. The results were evaluated using MicroCal PEAQ-ITC Analysis Software.

A further data set relates to GST-fused LC8. Description: GST pull-down of LC8 and sLCA5. The data set is classed as binding. As to conditions: GST-LC8 bait, MBP-, 6x-His-fused sLCA5 prey, PBS, 1 mM DTT, room temperature; result in words. Here is the method:
For the pull-down experiments, GST-fused LC8 was used as bait, and MBP-, 6x-His-fused LCA5 variants as prey. For controls, GST and MBP were used. Proteins were expressed in 100 ml cultures of E. coli BL21 (DE3) Rosetta cells as described above. Cells were harvested, resuspended in 5 ml PBS supplemented with 1 mg/ml lysozyme and 1 mM DTT, sonicated and clarified by centrifugation. 20 μl of Glutathione Sepharose 4B (Macherey–Nagel) (75%) resin was used for each experiment. Baits were incubated with the resin for 1 h at room temperature, then washed with PBS supplemented with 1 mM DTT. Prey proteins were added and incubated for one hour. The beads were washed and eluted by boiling in a 2 × SDS sample buffer and analyzed in tricine SDS page according to the protocol of Schagger et al[43].

The nature of data set [3]: negative staining transmission electron microscopy of sLCA5-LC8 complexes. Type of data set: physicochemical. Here is the method: For TEM negative staining experiments, a JEOL JEM-1011 (JEOL Ltd., Tokyo, Japan) electron microscope was used. The purified LCA5-LC8 complexes or LC8 or LCA5 forms alone were put together by using LCA5-WT or the single or double mutants at 30 μM and LC8 at 150 μM concentration in a buffer of 20 mM Tris 70 mM NaCl, pH 7.4, and incubated at 37 °C for 1 h. The complexes were diluted to a final 0.2 mg/ml concentration in the buffer and applied to 300 mesh formvar/carbon-coated copper grids (SPI Inc., USA). After 2 min of incubation the surplus was removed by filter paper and 1% uranyl acetate was applied for 1 min as negative staining. Images were taken around the middle of the grid at 5000, 50,000, 150,000 and 300,000-fold magnification. The collected data was analyzed by Fiji ImageJ software, and the statistical analysis was carried out in Origin 8 software.

Data set [4] is described as follows: analytical gel filtration. As to conditions: with LC8, 60 min at 37 °C vs non-incubated complex. The data set is classed as physicochemical. Here is the method:
as §1

Where a chain is given by its changes, count along the chain named.

T1 sequence (Q96FJ2 whole entry): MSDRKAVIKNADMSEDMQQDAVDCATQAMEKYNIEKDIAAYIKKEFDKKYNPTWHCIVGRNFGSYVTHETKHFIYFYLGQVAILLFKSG

B1: FLAG-LCA5: full-length LCA5 with N-terminal FLAG-tag (protein)
chain: MGERAGSPGTDQERKAGKHHYSYLSDFETPQSSGRSSLVSSSPASVRRKNPKRQTSDGQVHHQAPRKPSPKGLPNRKGVRVGFRSQSLNREPLRKDTDLVTKRILSARLLKINELQNEVSELQVKLAELLKENKSLKRLQYRQEKALNKFEDAENEISQLIFRHNNEITALKERLRKSQEKERATEKRVKDTESELFRTKFSLQKLKEISEARHLPERDDLAKKLVSAELKLDDTERRIKELSKNLELSTNSFQRQLLAERKRAYEAHDENKVLQKEVQRLYHKLKEKERELDIKNIYSNRLPKSSPNKEKELALRKNAACQSDFADLCTKGVQTMEDFKPEEYPLTPETIMCYENKWEEPGHLTLDLQSQKQDRHGEAGILNPIMEREEKFVTDEELHVVKQEVEKLEDEWEREELDKKQKEKASLLEREEKPEWETGRYQLGMYPIQNMDKLQGEEEERLKREMLLAKLNEIDRELQDSRNLKYPVLPLLPDFESKLHSPERSPKTYRFSESSERLFNGHHLQDISFSTPKGEGQNSGNVRSPASPNEFAFGSYVPSFAKTSERSNPFSQKSSFLDFQRNSMEKLSKDGVDLITRKEKKANLMEQLFGASGSSTISSKSSDPNSVASSKGDIDPLNFLPGNKGSRDQEHDEDEGFFLSEGRSFNPNRHRLKHADDKPAVKAADSVEDEIEEVALR
modifications: left off: FLAG, N-terminal, kept
notes: full-length LCA5 with N-terminal FLAG-tag
In the case of B1, the results for the “co-immunoprecipitation of LC8” value in the data set with HA-tagged LC8 and in the data set with HA-tagged LC8 (listed as FLAG-tagged LCA5) were “interaction was detected” and “LC8 was co-precipitated”, respectively. In the data set on HA-tagged LC8 (HEK-293, FLAG-LCA5 and HA-LC8 co-expressed, precipitation with anti-HA and anti-LC8 antibodies), the co-immunoprecipitation interaction result is “no”.

B2: sLCA5-ΔVQT: sLCA5 with the three core residues VQT exchanged for three alanines (protein)
chain: DTDLVTKRILSARLLKINELQNEVSELQVKLAELLKENKSLKRLQYRQEKALNKFEDAENEISQLIFRHNNEITALKERLRKSQEKERATEKRVKDTESELFRTKFSLQKLKEISEARHLPERDDLAKKLVSAELKLDDTERRIKELSKNLELSTNSFQRQLLAERKRAYEAHDENKVLQKEVQRLYHKLKEKERELDIKNIYSNRLPKSSPNKEKELALRKNAACQSDFADLCTKGAAAMEDFKPEEYPLTPETIMCYENKWEEPGHLTLDLQSQKQDRHGEAGILNPIMEREEKFVTDEELHVVKQEVEKLEDEWEREELDKKQKEKASLLER
modifications: left off: MBP, N-terminal, kept | His6, C-terminal, kept
notes: sLCA5 with the three core residues VQT exchanged for three alanines
For the molecule B2, the “LC8 content of fraction” value with LC8 [1] is recorded as “only a trace amount of LC8”. Moreover, the “− TΔS” value with LC8 [2] is 4.32 kcal/mol. In the data set on GST-fused LC8, the “interaction with LC8 (GST pull-down)” value is “did not abolish the interaction with LC8”.

B3: sLCA5-ΔCQS: sLCA5 with alanine mutations in the CQS motif core; VQT motif intact (protein)
chain: B2 chain with C226A, Q227A, S228A, A238V, A239Q, A240T
modifications: left off: MBP, N-terminal, kept | His6, C-terminal, kept
notes: sLCA5 with alanine mutations in the CQS motif core; VQT motif intact
On to B3, for which the “− TΔS” value with LC8 [2] amounted to 0.07 kcal/mol. Also, in data set [3] (30 μM sLCA5 + 150 μM LC8, 37 °C 1 h, 20 mM Tris 70 mM NaCl pH 7.4), the “measured diameter median of spherical complexes” value is given as 32 nm. The “amount of detectable oligomeric particles” value in data set [3] (TEM, result in words) is listed as “notable amount of particles around the edges of the grids”. The “interaction with LC8 (GST pull-down)” value in the data set with GST-fused LC8 is “maintained the interaction with LC8”. For the same molecule, in data set [4], the “void fraction increment on incubation” value was found to be 35%.
